According to article PMC6220978, “Induced conformational changes activate the peptidoglycan synthase PBP1B” (Molecular Microbiology, 2018):

Experiments:
Assay in all cases: SPR; PBP1B versions immobilised to the chip surface; LpoB injected from 19.5 nM to 10 μM; apparent KD by non-linear regression, at least three independent experiments
Conditions in all cases: both partners purified
PBP1B D443A = target: T1, PBP1B D443A (E. coli, UniProt P02919 46-844, D443A)
T1 construct: PBP1B, E. coli, residues 46-844, made by mutagenesis of pDML924; source: E. coli BL21(DE3), purified (membrane extract, HisTrap, thrombin, HiTrap SP ion exchange)
T1 sequence (looked up): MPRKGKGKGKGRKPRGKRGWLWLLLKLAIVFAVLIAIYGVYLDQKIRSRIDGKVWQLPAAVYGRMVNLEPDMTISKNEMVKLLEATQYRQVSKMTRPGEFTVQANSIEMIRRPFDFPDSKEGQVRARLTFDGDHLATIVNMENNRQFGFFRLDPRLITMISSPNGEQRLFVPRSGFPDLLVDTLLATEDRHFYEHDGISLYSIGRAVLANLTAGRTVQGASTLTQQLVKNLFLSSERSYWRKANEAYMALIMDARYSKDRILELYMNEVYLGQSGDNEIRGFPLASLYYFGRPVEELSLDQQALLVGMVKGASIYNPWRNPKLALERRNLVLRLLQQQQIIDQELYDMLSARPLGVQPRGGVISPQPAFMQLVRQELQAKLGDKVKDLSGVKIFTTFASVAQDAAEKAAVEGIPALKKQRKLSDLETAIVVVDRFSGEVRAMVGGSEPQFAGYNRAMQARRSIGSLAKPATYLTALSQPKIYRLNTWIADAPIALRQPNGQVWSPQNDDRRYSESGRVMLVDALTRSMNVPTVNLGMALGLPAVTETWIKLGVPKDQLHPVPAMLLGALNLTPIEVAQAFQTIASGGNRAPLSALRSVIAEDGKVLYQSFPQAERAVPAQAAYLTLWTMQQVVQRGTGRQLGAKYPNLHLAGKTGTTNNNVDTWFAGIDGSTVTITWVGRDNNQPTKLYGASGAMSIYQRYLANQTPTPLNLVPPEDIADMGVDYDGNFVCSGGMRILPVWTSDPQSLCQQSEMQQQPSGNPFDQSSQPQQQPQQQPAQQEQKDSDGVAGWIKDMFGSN

PBP1B R109G = target: T2, PBP1B R109G (E. coli, UniProt P02919 46-844, R109G)
T2 construct: PBP1B, E. coli, residues 46-844, made by mutagenesis of pDML924; source: E. coli BL21(DE3), purified (membrane extract, HisTrap, thrombin, HiTrap SP ion exchange)
T2 sequence (looked up): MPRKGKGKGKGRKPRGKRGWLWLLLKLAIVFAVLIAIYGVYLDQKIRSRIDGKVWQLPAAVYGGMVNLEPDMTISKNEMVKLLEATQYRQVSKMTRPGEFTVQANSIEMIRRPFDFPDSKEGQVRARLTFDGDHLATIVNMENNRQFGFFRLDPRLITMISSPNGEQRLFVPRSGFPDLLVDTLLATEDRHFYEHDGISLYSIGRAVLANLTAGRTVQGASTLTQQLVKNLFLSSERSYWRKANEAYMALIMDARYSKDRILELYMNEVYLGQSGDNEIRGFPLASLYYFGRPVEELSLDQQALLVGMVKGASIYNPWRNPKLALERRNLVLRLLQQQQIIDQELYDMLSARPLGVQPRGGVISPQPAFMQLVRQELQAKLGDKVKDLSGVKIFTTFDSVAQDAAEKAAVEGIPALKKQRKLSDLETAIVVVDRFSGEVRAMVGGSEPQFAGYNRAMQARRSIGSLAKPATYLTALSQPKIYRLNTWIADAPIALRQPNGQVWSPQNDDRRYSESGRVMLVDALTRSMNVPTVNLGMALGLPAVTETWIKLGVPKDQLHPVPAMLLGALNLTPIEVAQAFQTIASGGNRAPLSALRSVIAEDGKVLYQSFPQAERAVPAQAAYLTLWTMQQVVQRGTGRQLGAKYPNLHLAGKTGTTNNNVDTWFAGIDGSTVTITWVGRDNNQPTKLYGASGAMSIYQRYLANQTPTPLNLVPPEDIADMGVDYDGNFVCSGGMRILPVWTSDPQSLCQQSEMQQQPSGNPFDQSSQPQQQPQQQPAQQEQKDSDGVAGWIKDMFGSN

PBP1B D160C/K437C = target: T3, PBP1B D160C/K437C (E. coli, UniProt P02919 46-844, D160C | K437C)
T3 construct: PBP1B, E. coli, residues 46-844, made by mutagenesis of pDML924; Disulphide bridge between C160 and C437 (no free thiol groups detected); reduced in the SPR assay with 2 mM TCEP; source: E. coli BL21(DE3), purified (membrane extract, HisTrap, thrombin, HiTrap SP ion exchange)
T3 sequence (looked up): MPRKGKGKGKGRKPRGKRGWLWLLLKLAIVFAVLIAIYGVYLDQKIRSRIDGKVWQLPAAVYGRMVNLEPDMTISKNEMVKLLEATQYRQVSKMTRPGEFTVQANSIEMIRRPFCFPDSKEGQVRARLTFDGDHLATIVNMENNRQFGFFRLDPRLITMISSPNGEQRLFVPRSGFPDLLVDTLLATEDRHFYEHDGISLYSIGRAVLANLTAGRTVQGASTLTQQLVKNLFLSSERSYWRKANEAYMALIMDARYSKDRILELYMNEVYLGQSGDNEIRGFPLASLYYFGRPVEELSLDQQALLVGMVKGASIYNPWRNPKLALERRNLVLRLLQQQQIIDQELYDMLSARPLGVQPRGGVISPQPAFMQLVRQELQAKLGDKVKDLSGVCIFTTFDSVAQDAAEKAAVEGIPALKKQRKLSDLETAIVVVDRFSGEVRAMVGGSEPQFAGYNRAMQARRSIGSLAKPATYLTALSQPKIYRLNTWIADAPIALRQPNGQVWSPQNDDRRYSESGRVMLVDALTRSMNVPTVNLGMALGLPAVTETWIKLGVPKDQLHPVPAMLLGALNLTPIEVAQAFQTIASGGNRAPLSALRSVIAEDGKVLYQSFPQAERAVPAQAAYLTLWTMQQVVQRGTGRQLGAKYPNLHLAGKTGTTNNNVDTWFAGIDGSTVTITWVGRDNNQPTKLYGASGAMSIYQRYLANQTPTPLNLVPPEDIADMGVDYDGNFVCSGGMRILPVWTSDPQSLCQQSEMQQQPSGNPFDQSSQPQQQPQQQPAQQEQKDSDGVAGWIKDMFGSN

- Kd (PBP1B D443A): 0.289 µM
- Kd (PBP1B R109G): 3.09 µM
- Kd (PBP1B D160C/K437C): 3.97 µM
B1: LpoB (natural protein, E. coli)
chain: VGQREPAPVEEVKPAPEQPAEPQQPVPTVPSVPTIPQQPGPIEHEDQTAPPAPHIRHYDWNGAMQPMVSKMLGADGVTAGSVLLVDSVNNRTNGSLNAAEATETLRNALANNGKFTLVSAQQLSMAKQQLGLSPQDSLGTRSKAIGIARNVGAHYVLYSSASGNVNAPTLQMQLMLVQTGEIIWSGKGAVSQQ
notes: LpoB, E. coli; also called lipoprotein LpoB; source: E. coli BL21(DE3), purified (HisTrap, Superdex 200), as in Egan et al. 2014
